Like-named read-outs stand apart in the source and are kept apart here.

The target of assay [1] is T1, interleukin-1 receptor accessory protein (IL1RAP) on AML target cells (human, UniProt Q9NPH3 21-570).
T1 sequence (looked up): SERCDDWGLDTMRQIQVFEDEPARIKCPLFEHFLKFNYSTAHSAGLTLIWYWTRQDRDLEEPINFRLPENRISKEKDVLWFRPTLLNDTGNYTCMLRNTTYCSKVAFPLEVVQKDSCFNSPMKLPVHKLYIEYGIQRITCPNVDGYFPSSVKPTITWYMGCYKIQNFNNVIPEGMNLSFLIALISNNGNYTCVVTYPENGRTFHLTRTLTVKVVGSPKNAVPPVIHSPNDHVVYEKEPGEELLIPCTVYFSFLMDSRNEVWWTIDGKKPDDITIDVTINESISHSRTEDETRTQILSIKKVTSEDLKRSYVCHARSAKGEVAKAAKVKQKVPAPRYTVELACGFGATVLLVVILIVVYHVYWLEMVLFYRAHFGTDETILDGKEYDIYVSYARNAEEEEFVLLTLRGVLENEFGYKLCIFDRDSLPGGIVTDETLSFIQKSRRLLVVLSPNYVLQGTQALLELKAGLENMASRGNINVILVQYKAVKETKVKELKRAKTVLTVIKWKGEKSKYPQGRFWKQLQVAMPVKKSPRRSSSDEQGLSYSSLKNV
The assay is described as follows: cell-based or functional assay.

Assay [2] concerns the target T2, interleukin-1 receptor accessory protein (IL1RAP), antigen of the ELISA and phage selection (UniProt Q9NPH3 21-367, limits assumed).
T2 sequence (looked up): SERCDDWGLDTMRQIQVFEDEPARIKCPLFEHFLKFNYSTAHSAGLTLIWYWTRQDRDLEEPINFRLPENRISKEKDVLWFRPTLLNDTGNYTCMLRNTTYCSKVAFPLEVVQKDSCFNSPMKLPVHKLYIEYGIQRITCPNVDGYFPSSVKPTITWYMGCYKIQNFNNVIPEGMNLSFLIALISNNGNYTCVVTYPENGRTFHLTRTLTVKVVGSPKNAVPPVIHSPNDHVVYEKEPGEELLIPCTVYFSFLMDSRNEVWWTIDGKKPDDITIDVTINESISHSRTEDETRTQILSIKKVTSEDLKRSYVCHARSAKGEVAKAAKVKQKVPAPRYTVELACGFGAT
The assay is described as follows: ELISA, scFv-Fc on IL1RAP. (In general: ELISA stands for enzyme-linked immunosorbent assay.)

Assay [3] deals with T2, interleukin-1 receptor accessory …. The assay is described as follows: ELISA, scFv-Fc on IL1RAP. This is another data set of the same source.

B1: anti-IL1RAP antibody clone 2E12 (Fc fusion)
VH: PGAAAGVGGGLVQPGGSLRLSCEASGFTFSRYWMHWVRQAPGKGLVWVSRIHTDGSSISYADSVKGRFTISRDNAKNTLYLQMNSLRAEDTAVYYCARDIGGGYSYGSVDYWGQGTLVTVSS
VL: QPVLTQSPSVSVAPGKTTRITCGGDNIGSKSVHWFQQKPGQAPVLVVFGGGDRPSGIPERFSGSNSGNTATLIISGVEGGDEADYYCQVWDGSTDHYIFGAGTMVTVL
notes: Tested as scFv-Fc
Consider B1, for which, in assay [1], the “cell lysis %-1” value is 27.2%, the “cell lysis %-2” value amounted to 28.7%, the “cell lysis %-3” value worked out at 23.7% and the cell lysis %-average came to 26.5%. Also, in assay [2], the half-maximal effective concentration (EC50) (commonly the concentration needed to bring the measured effect to its halfway point) turned out to be 85.4 µg/mL. For the same molecule, the EC50 in assay [3] came to 854 nM.

These data come from patent US20220306750A1 (CITY OF HOPE, published 2022).
